“Also recorded” adds a separate entry of the source.
Columns and labels:
[1] = tested on: N-terminal CBM33 domain of CelS2; test: Metal reactivation of EDTA treated N-terminal CBM33 domain of CelS2 (HPAEC, FIG. 31); format: biochemical, Streptomyces coelicolor A3(2); settings: for reactivation of EDTA treated enzyme: 10 μM metal ion, 20 μM EDTA, 1.7 mM reduced glutathione, pH 6.6
Protocol: […]; Mg^2+, Fe^3+, Zn^2+, Co^2+, Ca^2+, Cu^2+). […].
To identify which is the preferred metal for CelS2, the activity of the N-terminal CBM33 domain of CelS2 was inhibited by EDTA and different metals were tested to reactivate the protein.

[2] = Cellulase boosting properties of CelS2 at various pHs with monocomponent Cel7A; format: biochemical; settings: Cel7A
Excerpt: When probing the cellulose boosting properties of CelS2 at various pHs using monocomponent Cel7A as the cellulose hydrolytic component, pH 5.5 came out as the optimal pH for activity. […] The most obvious reason for the decrease in cellulose hydrolysis at increasing pH is the pH stability and efficiency of Cel7A. […] CelS2 is a bacterial enzyme that originates from Streptomyces species that are known to grow optimally on cellulosic substrates in approximately neutral pH conditions (Kontro et al., 2005, Letters in Applied Microbiology 41: 32-38.).

[3] = Chitin solubilization by CBP21: soluble oxidized products (MALDI-TOF MS, UHPLC); format: biochemical; settings: 2.0 mg/mL beta-chitin, 1.0 mM ascorbic acid, 20 mM Tris pH 8.0, 37° C.
Protocol: Two microliter of a 9 mg/mL mixture of 2,5-dihydroxybenzoic acid (DHB) in 30% acetonitrile was applied to a MTP 384 target plate ground steel TF (Bruker Daltonics). One microliter sample was then mixed into the DHB droplet and dried under a stream of air. The samples were analyzed with an Ultraflex MALDI-TOF/TOF instrument (Bruker Daltonics GmbH, Bremen, Germany) with a Nitrogen 337 nm laser beam. The instrument was operated in positive acquisition mode and controlled by the FlexControl 3.3 software package. All spectra were obtained using the reflectron mode with an acceleration voltage of 25 kV, a reflector voltage of 26, and pulsed ion extraction of 40 ns in the positive ion mode. The acquisition range used was from m/z 0 to 7000. […] Post-source decay (PSD) spectra using the Bruker Daltonics LIFT system were recorded at 8 kV precursor ion acceleration voltage and fragment acceleration (LIFT voltage 19 kV). […]
UHPLC was run on an Agilent 1290 Infinity UHPLC system equipped with diode array detector, set up with a Waters Acquity UPLC BEH amide column (2.1×150 mm with a 2.1×30 mm pre column both having a column material particle size of 1.7 μm) using 5 μL sample injections. […] Eluted oligosaccharides were monitored by recording absorption at 205 nm. Chromatograms were recorded, integrated and analysed using the ChemStation rev. […]

[4] = 0.1 mg/mL beta-chitin, 0.5 μM ChiC, 1.0 mM ascorbic acid, pH 8.0
Protocol: CBP21-like and GH61 proteins contain two highly conserved histidines (H28 and H114 in CBP21), one of which is the N-terminal histidine of the secreted mature protein.
Isocratic HPLC was run on a Dionex Ultimate 3000 HPLC system set up with a 4.6×250 mm Amide-80 column (Tosoh Bioscience, Montgomeryville, Pa., USA) with an Amide-80 guard column. The mobile phase consisted of 70% acetonitrile: 30% MilliQ H2O and the flow rate was 0.7 ml/min. Eluted oligosaccharides were monitored by recording absorption at 190 nm. Chromatograms were recorded, integrated and analysed using the Chromeleon 6.8 chromatography software (Dionex). […] A standard solution containing 0.10 mM (GlcNAc)2 was analyzed at regular intervals during the sample series, and the resulting average values (displaying standard deviations of less than 3%) were used for calibration.
For the sake of experimental simplicity and throughput, the degradation of chitin in reactions with ChiC and CBP21 was quantitatively assessed by measuring concentration of the dominant product, (GlcNAc)2, only.
The reaction was incubated at 37° C. and sampled at regular time intervals. Chitin degradation was measured by determining the concentration of (GlcNAc)2 by HPLC.

[5] = Soluble products released from AVICEL by CBM33 proteins (MALDI-TOF MS, HPAEC); format: biochemical; settings: with external electron donor (ascorbic acid or reduced glutathione)
Protocol: The main peaks are annotated with molecular weight and degree of polymerization (DP).
The DP of the oxidized cellooligosaccharides is indicated by n, where n=3 (the shortest labelled oxidized cellooligosaccharide has a DP of three (=n)). […] Peak annotation was performed by comparing the chromatogram with the chromatogram obtained for a chemically prepared mixture of oxidized cellooligosaccharides with lengths varying from DP1 to DP10.
The main peaks are annotated with molecular weight and degree of polymerization (DP). All annotated peaks are Na adducts of native cellooligosaccharides, oxidized cellooligosaccharides (denoted “ox”) or the sodium salts of oxidized cellooligosaccharides.
Products were analyzed after 20 hours of incubation in 20 mM ammonium acetate buffer pH 5.0, 1 mM MgCl2 at 50° C. and 900 rpm (vertical agitation).
Separation of native and oxidized cellooligosaccharides was achieved using a Dionex Bio-LC equipped with a CarboPack PA1, a column temperature of 30° C. and a flow of 0.25 ml/min, with starting conditions, i.e., 0.1 M NaOH. A stepwise linear gradient with increasing amounts of sodium acetate was applied, going from 0.1 M NaOH and 0.1 M sodium acetate in 10 minutes, then to 0.1 M NaOH and 0.3 M sodium acetate for 25 minutes then increasing to 0.1 M NaOH and 1.0 M sodium acetate at 30 minutes which was kept for 10 minutes. Column reconditioning was achieved by a one minute gradient to initial conditions and subsequent running at initial conditions for 14 minutes. Eluted oligosaccharides were monitored by PAD detection. Chromatograms were recorded and analysed using Chromeleon 7.0 Peak identification was achieved by a procedure including the following steps: oxidized cellooligosaccharides were separated using a Dionex Ultimate 3000 UHPLC system carrying a Hypercarb 150×2.1 mm column (Thermo Scientific) running a gradient of water/0.1% TFA and acetonitrile/0.1% TFA (from 20 to 80% acetonitrile) according to the method developed by Westphal et al., 2010, Journal of Chromatography A 1217: 689-695. Eluted peaks were manually fractioned, freeze-dried, re-dissolved in MilliQ water and identified using MALDI-TOF MS. Pure oxidized cellooligosaccharides with known identity were then analyzed using the HPEAC method described above in order to establish the identity of the oxidized cellooligosaccharides generated by CelS2 and E7.

[6] = Filter paper degradation by […] with CelS2 or E7 (FIG. 20), sugars by HPLC; format: biochemical
Protocol: Reactions were run in 50 mM Bis-tris/HCl pH 6.5, 1 mM MgCl2, at 50° C. and 900 rpm (horizontal agitation). Control reactions containing the cellulosic substrate suspended in the same buffer as used for the enzyme assays gave no detectable signal for either glucose or cellobiose.
The mobile phase consisted of 5 mM sulfuric acid and the flow rate used was 1.0 ml/min. Eluted glucose and cellobiose were monitored by recording refractive index. Quantification was obtained by running glucose and cellobiose standards.
Assays performed to evaluate the function of E7 and CelS2 were set up using a variety of cellulosic substrates (AVICEL®, filter paper and steam exploded wood chips from poplar), at either pH 5.5 (20 mM sodium acetate buffer), 6.5 (20 mM Bis-Tris buffer) or 8.0 (20 mM Tris buffer) in reaction mixtures containing 1.0 mM MgCl2.

[7] = Filter paper cellulose degradation by […] with E7 (FIG. 28); format: biochemical
Protocol: 1 μM of the N-terminal CBM33 domain of CelS2 was incubated with 10 mg/ml AVICEL® in the presence of 0.8 mM of one of the reductants, or in the absence of any reductant. Reactions were run in 50 mM succinate buffer pH 5.5, 1 mM MgCl2, at 50° C. and 900 rpm (vertical agitation) for 20 hours. […] (glucose and cellobiose reported as [Glc]) released after incubation of 0.08 μl/ml […]™ (CC) in the presence or absence of 1 μM E7 and 2 mM reduced glutathione (RG) as external electron donor with 2 mg/ml filter paper cellulose. Reactions were incubated in 20 mM sodium acetate buffer pH 5.5, 1 mM MgCl2, at 50° C. and 900 rpm (horizontal agitation) for up to 50 hours.

[Cu+2] [Cu^2+]
reactivation of EDTA treated enzyme [1]: reactivated the enzyme
reactivation of EDTA treated enzyme ([1]; listed as copper): able to reactivate CelS2
effect on CBM33 action at higher metal concentration ([1]; concentrations in the 1 mM range, not shown): inhibits CBM33 action

B1: Cel7A: family GH7 cellulase from Hypocrea jecorina purified from CELLUCLAST (protein, UniProt P62694 18-513, looked up)
Exoglucanase 1: QSACTLQSETHPPLTWQKCSSGGTCTQQTGSVVIDANWRWTHATNSSTNCYDGNTWSSTLCPDNETCAKNCCLDGAAYASTYGVTTSGNSLSIGFVTQSAQKNVGARLYLMASDTTYQEFTLLGNEFSFDVDVSQLPCGLNGALYFVSMDADGGVSKYPTNTAGAKYGTGYCDSQCPRDLKFINGQANVEGWEPSSNNANTGIGGHGSCCSEMDIWEANSISEALTPHPCTTVGQEICEGDGCGGTYSDNRYGGTCDPDGCDWNPYRLGNTSFYGPGSSFTLDTTKKLTVVTQFETSGAINRYYVQNGVTFQQPNAELGSYSGNELNDDYCTAEEAEFGGSSFSDKGGLTQFKKATSGGMVLVMSLWDDYYANMLWLDSTYPTNETSSTPGAVRGSCSTSSGVPAQVESQSPNAKVTFSNIKFGPIGSTGNPSGGNPPGGNRGTTTTRRPATTTGSSPGPTQSHYGQCGGIGYSGPTVCASGTTCQVLNPYYSQCL
cellulase activity at pH 8.0 [2]: close to inactive

B2: CBP21^H114A: H114A mutant variant of CBP21 (protein, UniProt P9WEM3 28-197, looked up, variant H114A)
AA10 family lytic …: HGYVESPASRAYQCKLQLNTQCGSVQYEPQSVEGLKGFPQAGPADGHIASADKSTFFELDQQTPTRWNKLNLKTGPNSFTWKLTARASTTSWRYFITKPNWDASQPLTRASFDLTPFCQFNDGGAIPAAQVTHQCNIPADRSGSHVILAVWDIADTANAFYQAIDVNLSK
production of soluble oxidized oligosaccharides from beta-chitin [3]: did not lead to production of soluble oxidized oligosaccharides
potentiating effect on chitinase (ChiC) efficiency [4]: unable to boost chitinase activity

B3: CBM33 domain: recombinantly produced N-terminal CBM33 domain of CelS2 (SEQ ID NO: 22) (protein)
chain: HGVAMMPGSRTYLCQLDAKTGTGALDPTNPACQAALDQSGATALYNWFAVLDSNAGGRGAGYVPDGTLCSAGDRSPYDFSAYNAARSDWPRTHLTSGATIPVEYSNWAAHPGDFRVYLTKPGWSPTSELGWDDLELIQTVTNPPQQGSPGTDGGHYYWDLALPSGRSGDALIFMQWVRSDSQENFFSCSDVVFDGG
modifications: Streptomyces coelicolor
release of soluble native/oxidized cellooligosaccharides from AVICEL [5]: shows activity on AVICEL® without its CBM2, although lower than the activity of the whole protein

B4: E7: single domain CBM33 from Thermobifida fusca (SEQ ID NO: 6) (protein, listed as Thermobifida fusca)
chain: MHRYSRTGKHRWTVRALAVLFTALLGLTQWTAPASAHGSVINPATRNYGCWLRWGHDHLNPNMQYEDPMCWQAWQDNPNAMWNWNGLYRDWVGGNHRAALPDGQLCSGGLTEGGRYRSMDAVGPWKTTDVNNTFTIHLYDQASHGADYFLVYVTKQGFDPTTQPLTWDSLELVHQTGSYPPAQNIQFTVHAPNRSGRHVVFTIWKASHMDQTYYLCSDVNFV
increase of glucose yield versus CELLUCLAST only ([6]; no external electron donor, 24 hours): ~3.0 fold
increase of glucose yield versus CELLUCLAST only ([6]; no external electron donor, 120 hours): ~3.5 fold
increase of glucose yield versus CELLUCLAST only ([6]; with external electron donor (1 mM reduced glutathione), 24 hours): 3.5 fold
increase of glucose yield versus CELLUCLAST only ([6]; with external electron donor (1 mM reduced glutathione), 120 hours): ~4.5 fold
release of soluble native/oxidized cellooligosaccharides from AVICEL [5]: soluble oligomeric products were observed
effect on CELLUCLAST activity ([7]; 1 μM E7, 0.08 μl/ml CC, 2 mg/ml filter paper, pH 5.5): acts in synergy with CELLUCLAST™; also recorded: prolongs cellulase activity over time
Glc or Glc2 released without cellulases ([7]; E7 in absence of cellulases): did not yield detectable amounts of Glc or Glc2

Reference: patent US10889844B2, “Methods of degrading or hydrolyzing a polysaccharide” (Novozymes A/S, priority 2010, dated 2021)
